Laboratory results taken from patent publication US20150353647A1 (UNIVERSITY OF TENNESSEE RESEARCH FOUNDATION, published 2015).

Biological target: human tissue plasminogen activator (TPA) (human, UniProt P00750 36-562)
Experiment: cell-based or functional assay

Sequence of human tissue plasminogen activator (TPA) (P00750 36-562 limits assumed): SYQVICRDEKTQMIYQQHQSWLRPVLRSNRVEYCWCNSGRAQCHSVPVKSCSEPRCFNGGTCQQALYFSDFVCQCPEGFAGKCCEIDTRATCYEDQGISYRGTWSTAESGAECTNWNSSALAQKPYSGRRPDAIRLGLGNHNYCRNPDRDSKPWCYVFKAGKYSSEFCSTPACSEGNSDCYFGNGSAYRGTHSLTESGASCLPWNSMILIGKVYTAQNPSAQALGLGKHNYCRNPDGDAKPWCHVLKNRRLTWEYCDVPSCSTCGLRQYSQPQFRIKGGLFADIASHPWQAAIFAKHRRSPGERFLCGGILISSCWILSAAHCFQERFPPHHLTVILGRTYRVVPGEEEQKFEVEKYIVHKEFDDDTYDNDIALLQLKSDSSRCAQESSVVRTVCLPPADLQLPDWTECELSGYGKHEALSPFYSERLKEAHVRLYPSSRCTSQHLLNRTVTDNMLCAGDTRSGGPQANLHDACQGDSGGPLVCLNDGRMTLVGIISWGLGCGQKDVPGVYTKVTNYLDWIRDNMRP

IC50, inhibition of TPA-induced fibrinolysis of human plasma clots (0.5 nM TPA, 2 hrs): 4.53 nM
B1: stable mutant human PAI-1 (four amino acid substitutions, N150H, K154T, Q319L, and M354I) (other, UniProt P05121 24-402, looked up)
chain: VHHPPSYVAHLASDFGVRVFQQVAQASKDRNVVFSPYGVASVLAMLQLTTGGETQQQIQAAMGFKIDDKGMAPALRHLYKELMGPWNKDEISTTDAIFVQRDLKLVQGFMPHFFRLFRSTVKQVDFSEVERARFIINDWVKTHTKGMISHLLGTGAVDQLTRLVLVNALYFNGQWKTPFPDSSTHRRLFHKSDGSTVSVPMMAQTNKFNYTEFTTPDGHYYDILELPYHGDTLSMFIAAPYEKEVPLSALTNILSAQLISHWKGNMTRLPRLLVLPKFSLETEVDLRKPLENLGMTDMFRQFQADFTSLSDQEPLHVALALQKVKIEVNESGTVASSSTAVIVSARMAPEEIIIDRPFLFVVRHNPTGTVLFMGQVMEP
